Data from patent publication US20240269176A1.

How the values were obtained:
[1] = target: VH2VL1-CD8ATD-CD137CSD-CD3zSSD fusion
[2] = target: VL1VH3-CD8ATD-CD137CSD-CD3zSSD fusion
[3] = target: VH3VL1-CD8ATD-CD137CSD-CD3zSSD fusion
[4] = target: VH1VL1-CD8ATD-CD137CSD-CD3zSSD fusion
Sequence of VH1VL1-CD8ATD-CD137CSD-CD3zSSD fusion (chain, as listed by the source): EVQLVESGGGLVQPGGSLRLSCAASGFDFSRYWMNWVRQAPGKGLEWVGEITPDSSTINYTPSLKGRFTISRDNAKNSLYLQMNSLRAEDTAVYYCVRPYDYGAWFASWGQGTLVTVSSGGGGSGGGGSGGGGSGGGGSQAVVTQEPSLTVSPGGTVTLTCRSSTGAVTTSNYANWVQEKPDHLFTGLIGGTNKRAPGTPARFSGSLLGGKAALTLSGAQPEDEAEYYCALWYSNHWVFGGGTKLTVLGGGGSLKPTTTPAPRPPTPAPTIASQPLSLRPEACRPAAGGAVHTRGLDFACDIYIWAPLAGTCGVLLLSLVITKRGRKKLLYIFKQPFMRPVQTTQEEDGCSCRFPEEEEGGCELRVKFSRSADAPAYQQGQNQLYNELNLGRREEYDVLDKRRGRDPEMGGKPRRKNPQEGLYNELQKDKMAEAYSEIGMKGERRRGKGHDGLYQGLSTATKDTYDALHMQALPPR

Sequence of VL1VH3-CD8ATD-CD137CSD-CD3zSSD fusion (chain, as listed by the source): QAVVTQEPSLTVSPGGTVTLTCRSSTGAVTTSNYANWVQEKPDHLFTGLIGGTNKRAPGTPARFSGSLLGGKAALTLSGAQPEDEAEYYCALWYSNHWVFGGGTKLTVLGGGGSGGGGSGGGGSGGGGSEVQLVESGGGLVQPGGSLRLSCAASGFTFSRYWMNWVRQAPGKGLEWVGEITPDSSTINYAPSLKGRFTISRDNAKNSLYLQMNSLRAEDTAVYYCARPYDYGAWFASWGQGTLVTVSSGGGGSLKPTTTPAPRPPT
Sequence of VH3VL1-CD8ATD-CD137CSD-CD3zSSD fusion (chain, as listed by the source): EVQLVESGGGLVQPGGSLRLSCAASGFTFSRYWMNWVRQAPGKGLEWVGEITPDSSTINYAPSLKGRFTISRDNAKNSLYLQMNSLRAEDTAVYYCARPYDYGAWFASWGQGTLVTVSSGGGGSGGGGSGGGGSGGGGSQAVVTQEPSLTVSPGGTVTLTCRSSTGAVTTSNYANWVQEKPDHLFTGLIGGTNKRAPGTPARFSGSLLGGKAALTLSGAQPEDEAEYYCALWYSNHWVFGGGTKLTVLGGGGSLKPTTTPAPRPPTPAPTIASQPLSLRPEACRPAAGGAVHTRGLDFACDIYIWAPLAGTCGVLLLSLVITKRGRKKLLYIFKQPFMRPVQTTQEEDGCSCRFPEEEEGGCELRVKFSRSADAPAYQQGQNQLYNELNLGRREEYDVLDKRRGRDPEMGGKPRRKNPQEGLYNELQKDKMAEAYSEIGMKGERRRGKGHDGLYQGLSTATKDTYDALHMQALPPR
Sequence of VH2VL1-CD8ATD-CD137CSD-CD3zSSD fusion (chain, as listed by the source): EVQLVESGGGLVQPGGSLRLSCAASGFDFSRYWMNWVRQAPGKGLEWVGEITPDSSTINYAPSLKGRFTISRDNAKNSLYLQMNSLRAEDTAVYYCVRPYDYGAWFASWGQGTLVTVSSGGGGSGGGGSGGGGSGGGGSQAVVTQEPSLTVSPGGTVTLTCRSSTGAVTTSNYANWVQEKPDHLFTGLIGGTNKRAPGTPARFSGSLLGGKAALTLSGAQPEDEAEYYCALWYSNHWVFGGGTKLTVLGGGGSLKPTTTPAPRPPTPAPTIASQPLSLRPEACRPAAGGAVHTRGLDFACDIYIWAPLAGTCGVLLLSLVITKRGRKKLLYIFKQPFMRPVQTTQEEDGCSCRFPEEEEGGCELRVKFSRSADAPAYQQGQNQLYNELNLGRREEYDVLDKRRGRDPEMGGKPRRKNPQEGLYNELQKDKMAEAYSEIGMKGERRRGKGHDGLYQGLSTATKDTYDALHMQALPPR

- EC50 of NFAT-luciferase activation of anti-P329G CAR Jurkat cells, WSUDLCL2 target cells (5:1); table row VH2 x VL1 [1]: 10.4 pM
- EC50 of NFAT-luciferase activation of anti-P329G CAR Jurkat cells, WSUDLCL2 target cells (5:1); VL1 x VH 3 [2]: 6.19 pM
- EC50 of NFAT-luciferase activation of anti-P329G CAR Jurkat cells, WSUDLCL2 target cells (5:1); VH3 x VL1 [3]: 5.82 pM
- EC50 of NFAT-luciferase activation of anti-P329G CAR Jurkat cells, WSUDLCL2 target cells (5:1); VH1 x VL1 [4]: 8.14 pM
Substance: anti-CD20 (GA101) D246A P329G IgG1 (antibody)
